The assay addresses F-actin (skeletal muscle actin) (Oryctolagus cuniculus, UniProt P68135). In words: actin co-sedimentation assay.

The Kd is the concentration at which binding is half-saturated. Low readings indicate higher affinity, high ones lower affinity.

B1: Alpha-actinin-2 19-266 (protein)
chain: YMIQEEEWDRDLLLDPAWEKQQRKTFTAWCNSHLRKAGTQIENIEEDFRNGLKLMLLLEVISGERLPKPDRGKMRFHKIANVNKALDYIASKGVKLVSIGAEEIVDGNVKMTLGMIWTIILRFAIQDISVEETSAKEGLLLWCQRKTAPYRNVNIQNFHTSWKDGLGLCALIHRHRPDLIDYSKLNKDDPIGNINLAMEIAEKHLDIPKMLDAEDIVNTPKPDERAIMTYVSCFYHAFAGAEQAETAA
B1 yielded a Kd of 7.5 µM.

For the origin of these results see PMC4980809 (2016).
